Source: patent publication US20040266684

Target: T1, purified human Lys77-Plasminogen, P00747
T1 chain: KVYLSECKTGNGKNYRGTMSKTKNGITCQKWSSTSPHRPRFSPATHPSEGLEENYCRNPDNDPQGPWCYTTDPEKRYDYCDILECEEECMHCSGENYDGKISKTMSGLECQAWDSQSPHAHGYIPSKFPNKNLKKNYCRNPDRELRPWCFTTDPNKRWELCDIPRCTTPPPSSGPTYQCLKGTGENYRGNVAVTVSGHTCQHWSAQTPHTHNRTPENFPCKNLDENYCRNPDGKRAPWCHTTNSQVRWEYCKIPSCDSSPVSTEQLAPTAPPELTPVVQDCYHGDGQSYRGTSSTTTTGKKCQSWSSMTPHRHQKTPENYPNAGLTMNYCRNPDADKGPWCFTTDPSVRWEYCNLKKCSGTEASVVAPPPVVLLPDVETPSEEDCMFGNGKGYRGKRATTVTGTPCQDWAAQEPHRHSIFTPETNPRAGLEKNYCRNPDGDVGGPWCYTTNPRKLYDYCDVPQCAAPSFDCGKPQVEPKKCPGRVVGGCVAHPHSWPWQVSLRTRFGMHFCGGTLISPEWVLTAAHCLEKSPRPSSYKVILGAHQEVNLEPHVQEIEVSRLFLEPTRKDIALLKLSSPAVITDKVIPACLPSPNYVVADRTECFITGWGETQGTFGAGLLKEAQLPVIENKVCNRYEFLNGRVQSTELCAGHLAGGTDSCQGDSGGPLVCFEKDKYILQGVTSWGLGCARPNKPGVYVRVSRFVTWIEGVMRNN

B1: thiolated streptokinase (protein)
chain: IAGPEWLLDRPSVNNSQLVVSVAGTVEGTNQDISLKFFEIDLTSRPAHGGKTEQGLSPKSKPFATDSGAMSHKLEKADLLKAIQEQLIANVHSNDDYFEVIDFASDATITDRNGKVYFADKDGSVTLPTQPVQEFLLSGHVRVRPYKEKPIQNQAKSVDVEYTVQFTPLNPDDDFRPGLKDTKLLKTLAIGDTITSQELLAQAQSILNKNHPGYTIYERDSSIVTHDNDIFRTILPMDQEFTYRVKNREQAYRINKKSGLNEEINNTDLISEKYYVLKKGEKPYDPFDRSHLKLFTIKYVDVDTNELLKSEQLLTASERNLDFRDLYDPRDKAKLLYNNLDAFGIMDYTLTGKVEDNHDDTNRIITVYMGKRPEGENASYHLAYDKDRYTEEEREVYSYLRYTGTPIPDNPNDK
plasmin generated in the plasminogen activation assay (S-2251 substrate units): thiolated SK (1 nM) generated plasmin at a nearly linear of 4225 SU/ml
